Positions of bridges follow the written chain, without caps; N, C: chain ends. No end group written: not given here.
Columns and labels:
[1] = target: T1, VanR~P (phosphorylated VanR) (Enterococcus faecium, UniProt Q06239 1-231, phosphorylated with acetyl phosphate; Asp-55 is named as the residue that accepts the phosphoryl group); test: cell-based or functional assay
[2] = target: PhoB (complete PhoB sequence)
[3] = target: T1, VanR~P (phosphorylated VanR); test: not stated (comparison of VanR and VanR˜P; reference is unphosphorylated VanR)

T1 sequence (Q06239 whole entry): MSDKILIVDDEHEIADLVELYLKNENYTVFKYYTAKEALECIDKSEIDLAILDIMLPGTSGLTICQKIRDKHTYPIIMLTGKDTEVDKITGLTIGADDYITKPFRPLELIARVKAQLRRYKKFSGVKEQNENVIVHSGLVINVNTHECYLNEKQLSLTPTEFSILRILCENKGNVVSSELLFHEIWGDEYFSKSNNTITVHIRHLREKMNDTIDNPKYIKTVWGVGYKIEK

B1: peptide SEQ ID NO. 2 (peptide)
peptide: SLAHDSIIGYLS
IC50 for inhibiting VanR˜P binding to [32P] PVanH (gel shift), relative to SEQ ID NO. 1 [1]: 10 fold

B2: GST-VanSc (Arg-93-TAA-283 stop) (protein)
chain: RVMLSKFAKYFDEINTGIDVLIQNEDKQIELSAEMDVMEQKLNTLKRTLEKREQDAKLAEQRKNDVVMYLAHDIKTPLTSIIGYLSLLDEAPDMPVDQKAKYVHITLDKAYRLEQLIDEFFEITRYNLQTITLTKTHIDLYYMLVQMTDEFYPQLSAHGKQAVIHAPEDLTVSGDPDKLARVFNNILKNAA
phosphoryl transfer from VanS˜P to PhoB [2]: VanS˜P was incubated with PhoB, and phosphoryl transfer was assessed

B3: dodecamer peptide SEQ ID NO. 1 (peptide)
peptide: SLCHDSVIGWEC
modifications: disulfide 3-12 (inferred)
notes: also called Peptide E12
fold difference between binding to VanR and binding to VanR˜P [3]: > 100 fold

Reference: US20040033534A1 (WISCONSIN ALUMNI RESEARCH FOUNDATION, published 2004)
